The source of these data is patent US20070014791A1, “Rage-related methods and copositions for treating glomerular injury” (priority 2003, published 2007).

One data set concerns male BALB/c mice. Conditions: ADR 10.5 mg/kg IV, up to 6 weeks; cited from earlier work.
Data set [1] deals with male BALB/c mice treated with adriamycin (ADR). The experiment in a line: ADR-induced glomerular injury in BALB/c mice: kidney weight and mesangial morphometry (PAS staining). It counts as in vivo, mouse. The note with it: for kidney weight/body weight ratio: sRAGE 100 μg per day once daily, vs. PBS-treated mice; for mesangial area / mesangial/glomerular area: sRAGE 100 μg per day, compared with PBS treatment, PAS staining. As to the method: (§1) Male BALB/c mice at the age of six weeks received one intravenous dose of adriamycin (ADR), 10.5 mg/kg. Immediately after injection of ADR, mice received once daily administration of murine soluble RAGE, the extracellular ligand binding domain of RAGE, 100 μg per day, beginning immediately at the time of ADR treatment, and continued until the day of sacrifice.
Dissected kidneys were fixed in buffered formalin (10%) overnight and then routinely processed for light microscopy. Fixed paraffin-embedded tissues were cut (3 μm thick) and mounted on slides coated with 3-aminopropyltriethoxy silane (Sigma) followed by incubation at 37° C. overnight. Light microscopic views after staining with periodic acid Schiff (PAS) were scanned into a computer and the quantification of areas of mesangial matrix and glomerulus was performed using a Zeiss microscope and image analysis system (MediaCybernetics). To calculate mesangial area, only nuclei-free regions were included. Forty glomeruli from each animal were selected at random on the stained sections (20 from the outer region and 20 from the inner region). Morphometry was performed by investigators blinded to the experimental protocol.
To address the concept that RAGE may be involved in the pathogenesis of ADR-mediated FSGS, a single injection of ADR, 10.5 mg/kg, to male BALB/c mice at age 6 weeks was administered. ADR-treated mice received once daily administration of murine soluble RAGE, the extracellular ligand binding domain of RAGE, 100 μg per day, beginning immediately at the time of ADR treatment, and continued until the day of sacrifice. Other ADR-treated mice received vehicle, PBS.

The test system is the same in data set [2]. The experiment in a line: ADR-induced albuminuria in BALB/c mice: 24 hr urine albumin/creatinine. It counts as in vivo, mouse. Conditions: sRAGE 100 μg per day, mean±SE. How it is done: as §1
Twenty-four hour urine collection was obtained from each animal using metabolic cages. Urine albumin and creatinine were determined using Albuwell M and creatinine assays from Exocell (Philadelphia, Pa.) according to the manufacturer's instructions.
The key test of these concepts was the degree to which blockade of RAGE would suppress the development of albuminuria. Mice were placed in metabolic cages and 24 hr urine collected. Urine levels of albumin and creatinine were determined; results are reported as μg albumin/μg creatinine. […] At six weeks, the results were similarly striking.

As to `COc1cccc2c1C(=O)c1c(O)c3c(c(O)c1C2=O)C[C@@](O)(C(=O)CO)C[C@@H]3O[C@H]1C[C@H](N)[C@H](O)[C@H](C)O1` [ADR, adriamycin], in the data set on male BALB/c mice, the “mice that developed hematuria” value is 35.7% and the “mice that developed leukocyturia” value is listed as 53.6%.

B1: sRAGE: murine soluble RAGE, the extracellular ligand binding domain of RAGE (protein, UniProt Q62151 23-340, looked up)
extracellular domain: GQNITARIGEPLVLSCKGAPKKPPQQLEWKLNTGRTEAWKVLSPQGGPWDSVARILPNGSLLLPATGIVDEGTFRCRATNRRGKEVKSNYRVRVYQIPGKPEIVDPASELTASVPNKVGTCVSEGSYPAGTLSWHLDGKLLIPDGKETLVKEETRRHPETGLFTLRSELTVIPTQGGTHPTFSCSFSLGLPRRRPLNTAPIQLRVREPGPPEGIQLLVEPEGGIVAPGGTVTLTCAISAQPPPQVHWIKDGAPLPLAPSPVLLLPEVGHEDEGTYSCVATHPSHGPQESPPVSIRVTETGDEGPAEGSVGESGLGTLA
modifications: extracellular domain
B1: the “kidney weight/body weight ratio” value in data set [1] (2 weeks after ADR 10.5 mg/kg) and in data set [1] (6 weeks after ADR 10.5 mg/kg) was “significantly decreased” each time. The mesangial area entry in data set [1] (2 weeks after ADR) and in data set [1] (6 weeks after ADR) was “significantly decreased” each time. In addition, the mesangial/glomerular area result in data set [1] (2 weeks after ADR) and in data set [1] (6 weeks after ADR) was “significantly decreased” each time. The urine albumin/creatinine in data set [2] (2 weeks after ADR, p<0.05 vs. PBS-treated mice receiving ADR (809.55±365.85)) is given as 191.08±49.93 μg albumin/μg creatinine; in data set [2] (6 weeks after ADR, p<0.01 vs PBS/ADR (1,362.96±987.97)), 249.76±283.19 μg albumin/μg creatinine.
